Drawing on US20220251619A1, this text covers % active AAT relative to plasma-derived AAT (elastase inhibition, SAPNA hydrolysis and Average % Activity (elastase inhibition, SAPNA hydrolysis for two substances.

The experiment has as its target porcine pancreatic elastase (Merck, Germany, Cat. No. 324682) (porcine) (UniProt P00772). Put plainly: cell-based or functional assay.
Chain of UniProt P00772 (P00772 27-266 limits assumed): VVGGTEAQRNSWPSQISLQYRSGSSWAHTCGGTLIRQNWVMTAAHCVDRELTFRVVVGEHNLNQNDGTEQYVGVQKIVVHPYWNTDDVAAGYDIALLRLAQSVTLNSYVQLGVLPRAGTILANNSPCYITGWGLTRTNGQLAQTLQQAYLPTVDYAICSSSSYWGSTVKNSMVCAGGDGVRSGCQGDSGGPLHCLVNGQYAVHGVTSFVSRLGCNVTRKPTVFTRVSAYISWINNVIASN

In the case of “recombinant alpha-1 antitrypsin produced in CHO-DG44 cells, untreated (from UniProt P01009 25-418)”, the % active AAT relative to plasma-derived AAT (elastase inhibition, SAPNA hydrolysis at 410 nm), Assay 1 came to 90.1%; the % active AAT relative to plasma-derived AAT (elastase inhibition, SAPNA hydrolysis at 410 nm), Assay 2 stood at 88.6%; the Average % Activity (elastase inhibition, SAPNA hydrolysis at 410 nm) was determined as 89.3%.
The like results for “remodelled rAAT (rAAT incubated with beta1,4-galactosyltransferase, alpha2,3 sialyltransferase from Pasteurella multocida and alpha2,6 sialyltransferase from Photobacterium damselae, then purified) (from UniProt P01009 25-418)” were, in that order, 97.1%, 93% and 95.4%.
